{"source": "patent US20230121197A1", "about": "“ANTIBODIES SPECIFICALLY BINDING THE CARBOXYMETHYLATED CATALYTIC SUBUNIT OF PROTEIN PHOSPHATASE 2A” (Medizinische Universität Wien, priority 2020, published 2023)", "molecules": {"B1": {"name": "7C10-C5 monoclonal antibody (antibody, V domains shown)", "VH": "DVQLQESGPGLVKPSQSLSLTCSVTGYSITSGYYWNWIRQFPGNKLEWMGYISYDGSNNYNPSLKNRISITRDTSKNQFFLKLNSVTTEDTATYYCAGRFAYWGQGTLVTVSA", "VL": "DVLMTQTPLSLPVSLGDQASISCRSSQSIVHSNGNTYLEWYLQKPGQSPKLLIYKVSNRFSGVPDRFSGSGSGTDFTLKINRVEAEDLGVYYCFQGSHVPWTFGGGTKLEIK", "notes": "Used as hybridoma culture supernatant (ELISA, Western blot, IHC) or at 50 µg/mL (SPR); also called 7C10 X63; clone 7C10-C5"}, "B2": {"name": "7C10-C5: α-carboxymethylation specific mouse monoclonal IgG1 antibody from single clone hybridoma 7C10-C5 (DSM ACC3350) (antibody)", "heavy": "MYRMQLLSCIALSLALVTNSDVQLQESGPGLVKPSQSLSLTCSVTGYSITSGYYWNWIRQFPGNKLEWMGYISYDGSNNYNPSLKNRISITRDTSKNQFFLKLNSVTTEDTATYYCAGRFAYWGQGTLVTVSAAKTTAPSVYPLAPVCGDTTGSSVTLGCLVKGYFPEPVTLTWNSGSLSSGVHTFPAVLQSDLYTLSSSVTVTSSTWPSQSITCNVAHPASSTKVDKKIEPRGPTIKPCPPCKCPAPNLLGGPSVFIFPPKIKDVLMISLSPIVTCVVVDVSEDDPDVQISWFVNNVEVHTAQTQTHREDYNSTLRVVSALPIQHQDWMSGKEFKCKVNNKDLPAPIERTISKPKGSVRAPQVYVLPPPEEEMTKKQVTLTCMVTDFMPEDIYVEWTNNGKTELNYKNTEPVLDSDGSYFMYSKLRVEKKNWVERNSYSCSVVHEGLHNHHTTKSFSRTPGK", "light": "MDMRVPAQLLGLLLLWLSGARCDVLMTQTPLSLPVSLGDQASISCRSSQSIVHSNGNTYLEWYLQKPGQSPKLLIYKVSNRFSGVPDRFSGSGSGTDFTLKINRVEAEDLGVYYCFQGSHVPWTFGGGTKLEIKADAAPTVSIFPPSSEQLTSGGASVVCFLNNFYPKDINVKWKIDGSERQNGVLNSWTDQDSKDSTYSMSSTLTLTKDEYERHNSYTCEATHKTSTSPIVKSFNRNEC", "modifications": "Amino acid sequence of the recombinant 7C10-C5 heavy chain; Amino acid sequence of the recombinant 7C10-C5 light chain"}}, "key": {"[1]": {"target": "T1, C-terminal PP2Ac peptide Y307F, CGEPHVTRRTPDFFL (15-mer)", "T1 construct": "Non-carboxymethylated; Phe in place of Tyr307; Crosslinked to BSA in the Western blot; free or linked to BSA in the ELISA", "T1 peptide": "CGEPHVTRRTPDFFL", "experiment": "Western blot of 100 ng BSA crosslinked with peptide", "method": "100 ng of BSA crosslinked with peptides (L309: […] (SEQ ID NO:49), Y307F: […] (SEQ ID NO.50), pY307: […]pYFL (SEQ ID NO:51) or meL309: […]-CH₃) (SEQ ID NO:49) was separated by 10% SDS-PAGE and transferred to nitrocellulose membrane (0.2 μm, GE Healthcare). […] The membranes were blocked in 3% non-fatty dry milk (NFDM) in TBS-Tween for 1 h at RT and incubated with single clone hybridoma cell culture supernatant, clone 7C10-C5 diluted 1:100 in 0.5% NFDM in TBS-T (7C10 X63), recombinant single chain variable fragment of antibody 7C10-C5, undiluted (7C10 scFvs), recombinant bivalent single chain variable fragment 7C10-C5, undiluted (7C10 bi-scFvs) or single clone hybridoma cell culture supernatant, clone 1D7 (binding to non-carboxymethylated PP2Ac) 1:100 in 0.5% NFDM in TBS-T o/n at 4° C. After washing 3×5 min in TBS-T, blots incubated with recombinant antibodies were incubated with mouse anti-HA monoclonal antibody 16B12 (recognizing the hemagglutinin (HA) tag on the recombinant antibody), 1:10000 in 0.5% NFDM in TBS-T 2 h at room temperature. After washing 3×5 min in TBS-T, incubation with anti-mouse-HRP coupled secondary antibody for 1 h at RT and 3×10 min washes in TBS-T was performed. ECL was performed with GE Healthcare ECL reagents (RPN2106) mixed 1:3 with Clarity™ Western ECL Substrate, 500 ml #1705061 (Biorad). Signals were detected by exposure of X-ray films. […]"}, "[2]": {"target": "T2, PP2Ac C-terminal peptide meL309, ac-HVTRRTPDYFL-CH3 (α-carboxymethylated) (human, SMILES …)", "T2 construct": "also called Y307-meL309; mePP2Ac", "T2 peptide": "Ac-HVTRRTPDYFL-OMe", "experiment": "SPR, ratio of steady-state KD values", "excerpt": "(A) Saturation curve of the titration of the α-carboxymethylated PP2Ac C-terminal peptide (SEQ ID NO:18) on 7C10-C5 or 2A10 immobilized on a Series S Sensor Chip CM5 (GE Healthcare, 10296958). […] (B) Saturation curve of the titration of the α-carboxymethylated PP4c C-terminal peptide (SEQ ID NO:20) on 7C10-C5 or 2A10 immobilized on a Series S Sensor Chip CM5 (GE Healthcare, 10296958). […] The KD values were obtained using the fitting tool of the BiacoreT200 Evaluation Software (version 3.1).\n(§1) The differential affinity of anti-carboxymethylated PP2Ac antibodies, 7C10-C5 and 2A10, to carboxymethylated PP2A catalytic subunit versus noncarboxymethylated PP2A catalytic subunit was determined by surface plasmon resonance (SPR) on a Biacore T200 (GE Healthcare) at the Core Facility Biomolecular & Cellular Analysis (University of Natural Resources and Life Sciences Vienna BOKU). The affinity of 7C10-C5 for carboxymethylated and noncarboxymethylated catalytic subunit of PP4 (PP4c), a PP2A-related phosphatase, was also determined."}, "PP6": {"test_system": "PP6", "experiment": "Summary of cross-reactivities of C-terminal PP2Ac antibodies (Table 4), PP6", "details": "antibodies screened for binding methylated PP2Ac", "excerpt": "Examples of antibodies with a preference for non-methylated PP2Ac are mouse monoclonal antibody 4B7 (Yu (2001), Mol Biol Cell 12, 185-199), mouse monoclonal antibody 1D7 generated by the Ogris lab but also the rabbit monoclonal E155 antibody from Abeam and the mouse monoclonal F-8 from SCBT that were thought to be specific for pTyr^307."}, "[3]": {"target": "T3, non-carboxymethylated PP2Ac (ac-[…]-OH) (Homo sapiens, UniProt P67775)", "T3 construct": "The following 11-mer peptides corresponding to the carboxymethylated or non-methylated carboxy-terminus of PP2A and PP4 catalytic subunits were used as antigens", "experiment": "Surface plasmon resonance (Biacore T200), non-carboxymethylated PP2Ac peptide", "assay_type": "binding", "details": "SPR", "method": "as §1, with “determined. […] The KD of the binding of 7C10-C5 (or 2A10) to non-carboxymethylated PP2Ac or PP4c could not be determined because at the highest analyte sample concentration (5000 nM) only very weak binding signals were detected indicating KD values of at least >5000 nM or higher. […]” for “determined.”\nSPR experiments were performed with the BiacoreT200 instrument (Cytiva). […] The sensorgrams obtained were analyzed with BiacoreT200 Evaluation Software (version 3.1). […]"}}}
{"molecule": "B1", "values": [{"measurement": "binding result", "setting": "[1]", "result": "no binding (tested: supernatant 1:100)"}, {"measurement": "fold stronger binding than to carboxymethylated PP4c (ratio of KD)", "setting": "[2]", "result": 12, "unit": "fold"}]}
{"molecule": "B2", "values": [{"measurement": "PP6 meLeu^305", "setting": "PP6", "result": "— (— <15%)"}, {"measurement": "binding to carboxymethylated PP2Ac stronger than to non-carboxymethylated PP2Ac", "setting": "[3]", "result": "at least 400 fold"}, {"measurement": "binding to non-carboxymethylated PP2Ac", "setting": "[3]", "result": "does not bind to non-carboxymethylated PP2Ac to a measureable extent"}]}
